To fix the notation:
B1: Myosin VI FL-SNAP (natural protein, human, UniProt Q9UM54 1-1294, looked up)
chain: MEDGKPVWAPHPTDGFQMGNIVDIGPDSLTIEPLNQKGKTFLALINQVFPAEEDSKKDVEDNCSLMYLNEATLLHNIKVRYSKDRIYTYVANILIAVNPYFDIPKIYSSEAIKSYQGKSLGTRPPHVFAIADKAFRDMKVLKMSQSIIVSGESGAGKTENTKFVLRYLTESYGTGQDIDDRIVEANPLLEAFGNAKTVRNNNSSRFGKFVEIHFNEKSSVVGGFVSHYLLEKSRICVQGKEERNYHIFYRLCAGASEDIREKLHLSSPDNFRYLNRGCTRYFANKETDKQILQNRKSPEYLKAGSMKDPLLDDHGDFIRMCTAMKKIGLDDEEKLDLFRVVAGVLHLGNIDFEEAGSTSGGCNLKNKSAQSLEYCAELLGLDQDDLRVSLTTRVMLTTAGGTKGTVIKVPLKVEQANNARDALAKTVYSHLFDHVVNRVNQCFPFETSSYFIGVLDIAGFEYFEHNSFEQFCINYCNEKLQQFFNERILKEEQELYQKEGLGVNEVHYVDNQDCIDLIEAKLVGILDILDEENRLPQPSDQHFTSAVHQKHKDHFRLTIPRKSKLAVHRNIRDDEGFIIRHFAGAVCYETTQFVEKNNDALHMSLESLICESRDKFIRELFESSTNNNKDTKQKAGKLSFISVGNKFKTQLNLLLDKLRSTGASFIRCIKPNLKMTSHHFEGAQILSQLQCSGMVSVLDLMQGGYPSRASFHELYNMYKKYMPDKLARLDPRLFCKALFKALGLNENDYKFGLTKVFFRPGKFAEFDQIMKSDPDHLAELVKRVNHWLTCSRWKKVQWCSLSVIKLKNKIKYRAEACIKMQKTIRMWLCKRRHKPRIDGLVKVGTLKKRLDKFNEVVSVLKDGKPEMNKQIKNLEISIDTLMAKIKSTMMTQEQIQKEYDALVKSSEELLSALQKKKQQEEEAERLRRIQEEMEKERKRREEDEKRRRKEEEERRMKLEMEAKRKQEEEERKKREDDEKRIQAEVEAQLARQKEEESQQQAVLEQERRDRELALRIAQSEAELISDEAQADLALRRSLDSYPVSKNDGTRPKMTPEQMAKEMSEFLSRGPAVLATKAAAGTKKYDLSKWKYAELRDTINTSCDIELLAACREEFHRRLKVYHAWKSKNKKRNTETEQRAPKSVTDYDFAPFLNNSPQQNPAAQIPARQREIEMNRQQRFFRIPFIRPADQYKDPQSKKKGWWYAHFDGPWIARQMELHPDKPPILLVAGKDDMEMCELNLEETGLTRKRGAEILPRQFEEIWERCGGIQYLQNAIESRQARPTYATAMLQSLLK
modifications: Cy3-conjugated (single-molecule TIRF assay); benzylguanine-labeled DNA oligo on the SNAP tag (nanotube and origami assays)
B2: GIPC MIR, C-terminal SNAP-tagged (domain or fragment, human, UniProt O14908 261-333, looked up)
chain: EEKAIEKVDDLLESYMGIRDTELAATMVELGKDKRNPDELAEALDERLGDFAFPDEFVFDVWGAIGDAKVGRY
modifications: benzylguanine-labeled DNA oligo on the SNAP tag (DNA origami scaffold assay)

For test [1], the target named is mCerulean (mCer)-tagged myosin VI CBD (human) (UniProt Q9UM54). The test is described as follows: FRET or BRET; bimolecular FRET in solution; CBD-mCer held constant at 30 nM, increasing GIPC MIR–mCit titrated; excitation 430 nm; ΔFRET fit to a hyperbolic dose–response; three protein preparations. On the technique in general: Bioluminescence resonance energy transfer reports proximity on the nanometre scale.

In test [2] the target is B2. The test is described as follows: cell-based or functional assay.
The target of the test “Myosin VI FL-SNAP” is B1. The experiment in a line: cell-based or functional assay.

For orientation: Kd means the free concentration of one partner at which half of the binding sites on the other are occupied at equilibrium, for simple one-to-one binding. A high value points to weaker binding. As to “mCitrine (mCit)-tagged GIPC MIR (from UniProt O14908 261-333) (domain or fragment)”, the Kd in test [1] was determined as 120 nM. For the molecule B1, the “speed of DNA origami scaffolds on single actin filaments, myosin VI recruited through GIPC MIR against direct attachment” value in test [2] was 2.3 fold.

As for B2, the “actin gliding speed in the DNA nanotube assay (Myosin VI FL-SNAP patterned at 14 or 28 nm spacing), with 2 μM GIPC MIR against without” value with Myosin VI FL-SNAP amounted to 2.5 fold.
